Test results from the nanobody polyreactivity screen of Harvey et al. (2022).

Assay: yeast display, Sf9 membrane polyspecificity reagent, FACS + sequencing; frameworks hold sequencing errors
Summary of the method: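 Genes from sorted yeast were amplified by colony PCR, read by MiSeq 2 × 250 sequencing and filtered on CDR length. These cells carried a synthetic nanobody library in Saccharomyces cerevisiae BJ5465 and were sorted by FACS into low and high (top ~1%) gates on anti-HA and streptavidin fluorescence. Polyreactivity is labelled according to the gate of origin.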

QVQLEESGGGLVQAGGSLRLSCAASGSTFLLYAMGRYRQAPGKEMEMVATISWGGDGTYYADSVKGRFTISRDNAKNTVYLQMNSLIPEDTAVYYCAAESYLVQFYFLYYYWGQGTQVTVSS
polyreactivity (PSR sort gate): low polyreactivity

QVQLEESGGGLVQAGGSLRLSCAASGSTFQLYAMGWYRPAPGKERELVAGISRDGSTYYADSVKGRFTISRDNAKNTVFLQMNSLKPEDTAVYYCAAKYYGNKRDLYYWGQGTQVTVSS
polyreactivity (PSR sort gate): low polyreactivity

QVQLEESGGGLVQAGGSLRLSCAASGSTFSTYSMAWYRHAPGKERELVARITRSDTGTYYADSVKGRFTISRDYAKNTVYLQLNSLKPEDTAVYDCAADGWYDDSGWDYGYDYWGQGTQVTVSS
polyreactivity (PSR sort gate): low polyreactivity

QVQLEESGGGLVQAGGSLRLSCAASGSTFTEYVMGWYRHATGKERELVAAIRSNGGSTYYADSVKGRFTISRDNAKNTVYLQMHSLNPEDTAVYYCNRVYSRRTYNSPLYDDWGQGTQVTVSS
polyreactivity (PSR sort gate): high polyreactivity

QVQLEESGGGLVQAGGSLRLSCAASGSTFTGYAMGWYRQAPGKERELVAAIPISGGRTFYADSVKGRFTISRDNAKNTVYLQMNSLKPEDTAFYYCAAYLRGSKYSFDYWGQGTQVTVSS
polyreactivity (PSR sort gate): high polyreactivity

QVQLEESGGGLVQAGGSLRLSCAASGSTFVPNDMGGYRQAPGKERELVAAITDSGGSTYYADSVKGRFTISRDNAKNTVYLQMNSLKPEDTAVYYCAAEKAEWYYHTVWHFARGEYWGQGTQVTVSS
polyreactivity (PSR sort gate): low polyreactivity

QVQLEESGGGLVQAGGSLRLSCAASGSTFWLNAMGWYRQAPGKESELVASITWSGDSTYYADSVKGRFTISRDNAKNTVYLQMNSLKPEDTAVYYCNTDSILGQIWGATDDYWGQGTQVTVSS
polyreactivity (PSR sort gate): low polyreactivity

QVQLEESGGGLVQAGGSLRLSCAASGSTFWRYAMGWYRQAPGKERELVAAISWNGGSTYYADSVKGRFTISRDNAKNTDYLQMNSLKPEDTSVFYCNRRYPFYSRYNNDYWGQGTQVTVSS
polyreactivity (PSR sort gate): high polyreactivity

QVQLEESGGGLVQAGGSLRLSCAASGSTFYANTMGSYRQAPGKERELVATISIDGSTNYADSVKGRFTISRDNAKNTVYLQMNTLKPEDTAVYYCNADVYSVLYGYWGQGTQVTVSS
polyreactivity (PSR sort gate): low polyreactivity

QVQLEESGGGLVQAGGSLRLSCAASGSTFYGYAMGWNRQAPGKERELVAAITRSGGSTYYADSVKGRFTISRDNAKNTVYLQMNSLKPEDTEVYYCNKYGYKGGVGYDYWGQGTQVTVSS
polyreactivity (PSR sort gate): high polyreactivity

QVQLEESGGGLVQAGGSLRLSCAASGSTFYPNAMGWYRQAPGKERELVAAISQRGGRKYYADSVKGRFTISRDNAKNTVYLQMNSLKPEDTAVYYCAATYQGYNSWYSFGYWGQGTQVTVSS
polyreactivity (PSR sort gate): high polyreactivity

QVQLEESGGGLVQAGGSLRLSCAASGSTFYRYAMGCYRQAPGKERELVAAMSRGGGRTNYADSVKGRFTISRDNAKNTVYLQMNSLKPEDTAVYYGAAYTYSFRANHDYWGQGTQVTVSS
polyreactivity (PSR sort gate): high polyreactivity

QVQLEESGGGLVQAGGSLRLSCAASGSTFYRYTMGWYRQAPGTERELVAAISRSGGRTYYADSVKGRFTISRDNAKNTVYLQMNSLKPEDTAVYYCAAARRYGRYFGYPMEYWGQGTQVTVSS
polyreactivity (PSR sort gate): high polyreactivity

QVQLEESGGGLVQAGGSLRLSCAASGSTFYSNAIGWYRQAPGKEREFVAAISLRGGSTYYADSVKGRFTISRDNAKNTVYLQMNSLKPEDTAVYYCAVDYYRRNGLKVYYRYDYWGQGTQVTVSS
polyreactivity (PSR sort gate): high polyreactivity

QVQLEESGGGLVQAGGSLRLSCAASGSTIPRNAMGWYRQAPGKERELVAAITSGGSTNYADSVKGRFTISRDNAKNTVYLQMNSLKPEDTSVYYCAADEQVNTQYVVWGDYWGQGTQVTVSS
polyreactivity (PSR sort gate): low polyreactivity

QVQLEESGGGLVQAGGSLRLSCAASGSTLIDNVMVWYRQAPGKERELVASITSSDGTTYADSVKGRITISRDNAKNTVYLQMNSLIPEDTAVYYCAARPWYGTYNYWGQGTQVTVSS
polyreactivity (PSR sort gate): low polyreactivity

QVQLEESGGGLVQAGGSLRLSCAASGSTLKLNAMGWYRQAPGKERELVASINFSGGSTYYAYSVKGRFTISRDNAKNTVYLQMNSLKPEDTAVYYCAAEASSYSRSVRWRYVYYYWGQGTQVTVSS
polyreactivity (PSR sort gate): high polyreactivity
